One substance from US20160136234A1 can be followed below.

Some targets named below: JNK3 (h) (human) (UniProt P53779); HIPK1 (h) (human) (UniProt Q86Z02); PRAK (h) (human) (UniProt Q8IW41); PKCτ (h) (human); Met(D1246N) (h) (human) (UniProt P08581); SAPK2b (h) (human) (UniProt Q15759); EGFR(T790M) (h) (human) (UniProt P00533); Lck (h) (human) (UniProt P06239); PKCα (h) (human) (UniProt P17252); Pim-2 (h) (human) (UniProt Q9P1W9); FGFR4 (h) (human) (UniProt P22455); ALK (h) (human) (UniProt Q9UM73); CDK1/cyclinB (h) (human) (UniProt P06493); DAPK1 (h) (human) (UniProt P53355).

Assay in all cases: cell-based or functional assay
A further experiment deals with T1, CHK1 (h) (human) (UniProt O14757).
T1 sequence (looked up): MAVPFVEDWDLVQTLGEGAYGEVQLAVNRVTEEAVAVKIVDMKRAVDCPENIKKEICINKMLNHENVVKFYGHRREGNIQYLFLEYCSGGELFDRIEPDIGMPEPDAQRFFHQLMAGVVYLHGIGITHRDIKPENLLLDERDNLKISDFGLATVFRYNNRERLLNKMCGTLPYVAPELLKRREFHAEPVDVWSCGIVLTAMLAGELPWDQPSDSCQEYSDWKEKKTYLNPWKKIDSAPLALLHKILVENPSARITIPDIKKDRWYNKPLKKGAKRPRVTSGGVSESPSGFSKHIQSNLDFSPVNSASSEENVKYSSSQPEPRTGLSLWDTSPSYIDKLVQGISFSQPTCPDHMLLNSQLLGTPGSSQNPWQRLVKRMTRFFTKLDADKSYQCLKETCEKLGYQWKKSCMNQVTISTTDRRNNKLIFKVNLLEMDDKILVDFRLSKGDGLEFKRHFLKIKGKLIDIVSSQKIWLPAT

Another experiment has as its target T2, DRAK1 (h) (human) (UniProt Q9UEE5).
T2 sequence (looked up): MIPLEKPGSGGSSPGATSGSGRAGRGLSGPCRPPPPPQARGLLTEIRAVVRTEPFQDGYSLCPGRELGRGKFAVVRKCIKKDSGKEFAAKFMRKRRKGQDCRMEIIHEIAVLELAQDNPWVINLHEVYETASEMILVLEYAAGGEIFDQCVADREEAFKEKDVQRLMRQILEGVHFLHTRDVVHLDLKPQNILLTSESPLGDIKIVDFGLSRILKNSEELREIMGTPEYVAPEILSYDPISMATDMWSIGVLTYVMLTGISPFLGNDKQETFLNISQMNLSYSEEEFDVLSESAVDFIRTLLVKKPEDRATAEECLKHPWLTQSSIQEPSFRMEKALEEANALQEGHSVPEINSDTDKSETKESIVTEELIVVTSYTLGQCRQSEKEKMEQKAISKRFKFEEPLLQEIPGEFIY

Experiment [1] deals with EGFR(T790M, L858R) (h) (human) (UniProt P00533).
The target in the next experiment is T3, PKD2 (h) (human) (UniProt Q9BZL6).
T3 sequence (looked up): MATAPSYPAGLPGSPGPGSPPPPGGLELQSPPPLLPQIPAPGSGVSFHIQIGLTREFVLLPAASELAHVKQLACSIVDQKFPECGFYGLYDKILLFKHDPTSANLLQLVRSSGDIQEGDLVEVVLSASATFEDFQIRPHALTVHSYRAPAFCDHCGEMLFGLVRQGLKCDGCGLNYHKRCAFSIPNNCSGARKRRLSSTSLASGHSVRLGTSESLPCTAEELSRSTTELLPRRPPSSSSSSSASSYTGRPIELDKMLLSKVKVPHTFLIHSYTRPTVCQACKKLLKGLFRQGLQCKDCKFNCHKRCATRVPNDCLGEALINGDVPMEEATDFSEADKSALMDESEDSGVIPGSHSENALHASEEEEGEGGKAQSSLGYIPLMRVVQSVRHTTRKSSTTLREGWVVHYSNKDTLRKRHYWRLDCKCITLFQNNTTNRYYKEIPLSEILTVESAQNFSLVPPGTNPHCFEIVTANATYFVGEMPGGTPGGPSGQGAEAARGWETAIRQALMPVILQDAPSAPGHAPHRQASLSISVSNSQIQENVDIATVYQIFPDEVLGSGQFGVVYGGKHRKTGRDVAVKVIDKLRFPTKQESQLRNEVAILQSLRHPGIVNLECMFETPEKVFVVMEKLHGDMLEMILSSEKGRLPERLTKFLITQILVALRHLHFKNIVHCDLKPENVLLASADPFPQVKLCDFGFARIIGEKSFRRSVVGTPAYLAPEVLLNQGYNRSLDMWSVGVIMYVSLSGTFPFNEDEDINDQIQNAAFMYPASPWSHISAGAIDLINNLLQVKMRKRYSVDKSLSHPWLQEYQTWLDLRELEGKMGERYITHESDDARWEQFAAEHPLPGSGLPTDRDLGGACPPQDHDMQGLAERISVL

In the next experiment the target is T4, DDR2 (h) (human) (UniProt Q16832).
T4 sequence (looked up): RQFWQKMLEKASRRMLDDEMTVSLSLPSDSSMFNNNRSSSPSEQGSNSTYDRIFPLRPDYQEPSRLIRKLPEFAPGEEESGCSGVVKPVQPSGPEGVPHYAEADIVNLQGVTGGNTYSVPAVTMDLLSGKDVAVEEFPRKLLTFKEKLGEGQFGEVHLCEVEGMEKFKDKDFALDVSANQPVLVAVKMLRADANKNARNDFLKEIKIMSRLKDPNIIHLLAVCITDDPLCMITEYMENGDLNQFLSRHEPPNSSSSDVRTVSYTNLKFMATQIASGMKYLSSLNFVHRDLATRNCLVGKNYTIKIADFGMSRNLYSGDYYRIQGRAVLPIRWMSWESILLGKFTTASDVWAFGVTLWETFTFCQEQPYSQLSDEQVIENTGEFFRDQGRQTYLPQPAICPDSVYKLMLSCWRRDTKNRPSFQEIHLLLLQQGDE

Sequence of PRAK (h) (human) (Q8IW41 whole entry): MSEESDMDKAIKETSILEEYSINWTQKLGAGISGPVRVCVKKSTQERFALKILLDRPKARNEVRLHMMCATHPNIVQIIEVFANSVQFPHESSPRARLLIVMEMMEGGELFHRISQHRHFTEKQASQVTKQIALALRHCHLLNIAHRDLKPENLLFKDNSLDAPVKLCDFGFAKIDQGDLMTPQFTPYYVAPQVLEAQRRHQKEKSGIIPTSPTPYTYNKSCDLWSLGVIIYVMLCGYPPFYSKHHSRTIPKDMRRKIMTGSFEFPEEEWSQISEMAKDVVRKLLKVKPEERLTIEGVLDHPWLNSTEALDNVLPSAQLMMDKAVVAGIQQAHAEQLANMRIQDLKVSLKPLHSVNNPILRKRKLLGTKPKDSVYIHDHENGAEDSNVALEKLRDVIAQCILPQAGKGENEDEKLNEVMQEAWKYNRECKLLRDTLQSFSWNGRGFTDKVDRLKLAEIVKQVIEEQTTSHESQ
Sequence of FGFR4 (h) (human) (P22455 460-802 limits assumed): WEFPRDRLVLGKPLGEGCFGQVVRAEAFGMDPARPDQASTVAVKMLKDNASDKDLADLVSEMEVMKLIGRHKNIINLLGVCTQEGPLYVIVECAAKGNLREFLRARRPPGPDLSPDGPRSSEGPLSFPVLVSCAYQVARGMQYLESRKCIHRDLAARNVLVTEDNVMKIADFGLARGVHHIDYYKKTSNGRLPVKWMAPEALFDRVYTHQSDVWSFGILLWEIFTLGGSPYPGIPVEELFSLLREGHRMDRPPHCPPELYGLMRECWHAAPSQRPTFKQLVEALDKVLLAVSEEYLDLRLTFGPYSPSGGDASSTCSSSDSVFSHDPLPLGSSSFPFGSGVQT
Sequence of SAPK2b (h) (human) (Q15759 whole entry): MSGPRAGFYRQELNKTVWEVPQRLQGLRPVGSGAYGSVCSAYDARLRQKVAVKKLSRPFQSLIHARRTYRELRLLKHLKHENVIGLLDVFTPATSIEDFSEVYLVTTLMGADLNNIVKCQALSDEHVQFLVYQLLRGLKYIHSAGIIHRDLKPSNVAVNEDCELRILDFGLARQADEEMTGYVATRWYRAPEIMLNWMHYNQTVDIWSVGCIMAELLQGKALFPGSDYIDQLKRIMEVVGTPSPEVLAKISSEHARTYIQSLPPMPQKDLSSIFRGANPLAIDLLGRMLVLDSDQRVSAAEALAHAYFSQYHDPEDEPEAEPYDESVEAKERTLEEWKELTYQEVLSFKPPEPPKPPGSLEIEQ

For the substance MMI-0300 (peptide), the % activity at 100 µM worked out at 89% in the experiment with JNK3 (h) (human); 74% with HIPK1 (h) (human); 128% with PRAK (h) (human); 68% in the experiment with PKCτ (h) (human); 82% in the experiment with Met(D1246N) (h) (human); 81% in the experiment with SAPK2b (h) (human). Further, the % activity at 100 µM in the experiment with EGFR(T790M) (h) (human) was 100%; with CHK1 (h) (human), 91%; with DRAK1 (h) (human) it was 14%; with Lck (h) (human), -2%; in experiment [1], 85%; with PKD2 (h) (human), 33%. Moreover, the % activity at 100 µM in the experiment with PKCα (h) (human) is 89%; in the experiment with Pim-2 (h) (human), 76%; with FGFR4 (h) (human) it was 28%; with ALK (h) (human) it was 19%; in the experiment with DDR2 (h) (human) it was 94%; with CDK1/cyclinB (h) (human), 73%. Moreover, the % activity at 100 µM in the experiment with DAPK1 (h) (human) was found to be 46%.
